Results reported in patent publication US20110091477A1 (Genentech, published 2011).

T1: matriptase (UniProt Q9Y5Y6 615-855, limits assumed)
T1 sequence (looked up): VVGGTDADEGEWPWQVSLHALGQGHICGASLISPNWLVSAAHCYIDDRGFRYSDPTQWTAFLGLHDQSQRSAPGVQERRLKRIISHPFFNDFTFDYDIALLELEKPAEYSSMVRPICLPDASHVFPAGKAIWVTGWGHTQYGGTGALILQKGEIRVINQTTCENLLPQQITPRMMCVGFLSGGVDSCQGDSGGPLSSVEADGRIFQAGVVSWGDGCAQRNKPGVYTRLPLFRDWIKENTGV

T2: HGFA (Val373-Ser655) (human, UniProt Q04756 373-655)
T2 construct: a tag is not described; also called human HGFA
T2 sequence: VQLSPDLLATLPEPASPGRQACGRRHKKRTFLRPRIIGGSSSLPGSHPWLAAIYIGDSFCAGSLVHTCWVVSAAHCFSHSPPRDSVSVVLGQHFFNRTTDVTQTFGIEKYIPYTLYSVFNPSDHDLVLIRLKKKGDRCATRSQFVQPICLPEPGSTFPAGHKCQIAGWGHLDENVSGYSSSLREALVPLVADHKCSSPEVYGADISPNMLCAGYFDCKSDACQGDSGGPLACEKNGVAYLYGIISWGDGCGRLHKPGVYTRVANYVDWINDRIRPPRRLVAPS

T3: factor XIIa (UniProt P00748 20-615, limits assumed)
T3 construct: also called FXIIa; coagulation factor XIIa
T3 sequence (looked up): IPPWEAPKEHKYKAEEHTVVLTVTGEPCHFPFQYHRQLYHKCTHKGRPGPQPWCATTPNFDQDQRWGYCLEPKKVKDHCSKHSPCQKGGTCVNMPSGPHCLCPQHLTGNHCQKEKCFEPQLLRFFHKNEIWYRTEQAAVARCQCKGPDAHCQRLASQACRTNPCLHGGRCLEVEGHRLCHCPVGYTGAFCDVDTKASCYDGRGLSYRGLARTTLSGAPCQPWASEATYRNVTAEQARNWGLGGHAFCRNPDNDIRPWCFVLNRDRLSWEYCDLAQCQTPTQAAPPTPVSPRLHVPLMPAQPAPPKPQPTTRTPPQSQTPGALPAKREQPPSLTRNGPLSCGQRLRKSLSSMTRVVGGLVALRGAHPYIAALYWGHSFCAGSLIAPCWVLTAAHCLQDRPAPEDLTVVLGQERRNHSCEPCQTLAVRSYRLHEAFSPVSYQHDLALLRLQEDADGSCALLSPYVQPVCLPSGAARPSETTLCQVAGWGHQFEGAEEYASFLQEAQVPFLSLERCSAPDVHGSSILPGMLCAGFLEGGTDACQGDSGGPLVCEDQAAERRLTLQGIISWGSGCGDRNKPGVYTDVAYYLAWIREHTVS


How the values were obtained:
matriptase = molecular target: T1, matriptase; test: direct binding ELISA on coated matriptase, anti-human antibody HRP conjugate, OD 450 nm
Experimental: (§1) FIG. 9: (a) Antibody specificity. In a direct binding ELISA, 96-well plates were coated with […] of HGFA, matriptase (Kirchhofer et al. (2003) J Biol Chem 278:36341-36349), urokinase (American Diagnostica), or factor XIIa (American Diagnostica) and incubated with […] of anti-HGFA antibodies in PBS, 0.05% (v/v) Tween-20 (PBT) buffer. After washing, bound antibodies were detected by addition of anti-human antibody HRP conjugate (diluted 1:2,500 in PBT buffer) and TMB substrate. Absorbance at 450 nm was measured on a microplate reader.
(§2) Competition HGFA binding ELISA experiments: For binding specificity measurements, 96-well Maxisorp plates were coated with 2 μg/ml of HGFA, matriptase, urokinase-type plasminogen activator or factor XIIa and incubated with 10 μg/ml of anti-HGFA IgG in PBST buffer for at least 1 hour at room temperature. The plates were washed with PBT buffer and bound antibodies were detected with anti-human antibody HRP conjugate diluted 1:2500 in PBST buffer, developed with TMB substrate for approximately 5 minutes, quenched with 1 M H₃PO₄, and absorbance was measured on a microplate reader at 450 nm.

HGFA (Val373-Ser655) [1] = molecular target: T2, HGFA (Val373-Ser655); test: SPR (BIAcore 3000), IgG captured on anti-human IgG, HGFA injected, 25 C
Description: (§3) Antibody reformatting and determination of dissociation rate constants to HGFA: Anti-HGFA Fabs were reformatted into human IgG1 by cloning the VL and VH regions of individual clones into LPG3 and LPG4 vector, respectively (Liang et al, 2007). The full-length antibodies were transiently expressed in Chinese Hamster Ovary cells and purified on a protein-A column. To determine binding affinities of the reformatted anti-HGFA antibodies, surface plasmon resonance measurements on a BIAcore™-3000 instrument (GE Health Care, NJ) were performed. Rabbit anti-human IgG were chemically immobilized (amine coupling) on CM5 biosensor chips and the anti-HGFA antibodies were captured to give approximately 250 response units (RU). For kinetics measurements, two-fold serial dilutions of HGFA or active site-blocked HGFA (0.9 nM to 250 nM) were injected in PBT buffer at 25° C. with a flow rate of 30 μl/min. HGFA-KQLR (“KQLR” disclosed as SEQ ID NO: 10) was produced by incubating HGFA with two fold molar excess of Ac-KQLR-cmk (“KQLR” disclosed as SEQ ID NO: 10) for 2 hours at room temperature, followed by size exclusion chromatography to remove non-incorporated Ac-KQLR-cmk (“KQLR” disclosed as SEQ ID NO: 10). Association rates (kₒₙ) and dissociation rates (koff) were obtained by using a simple one-to-one Langmuir binding model (BIAEvaluation) and the equilibrium dissociation constants (KD) were calculated (koff/kₒₙ). Longer injection (5 min) of 2-fold serial dilution of HGFA or HGFA-KQLR (“KQLR” disclosed as SEQ ID NO: 10) (1.5 nM to 3000 nM) over captured antibody (Ab40.ΔTrp) sensor chip was implemented to achieve maximal binding (Rₘₐₓ) and reach the steady state.

factor XIIa = molecular target: T3, factor XIIa; test: direct binding ELISA on coated factor XIIa, anti-human antibody HRP conjugate, OD 450 nm
Experimental: as §1, §2

[2] = molecular target: urokinase-type plasminogen activator (UniProt P00749 21-431, limits assumed); test: direct binding ELISA on coated urokinase, anti-human antibody HRP conjugate, OD 450 nm
Experimental: as §1, §2

HGFA (Val373-Ser655) [3] = molecular target: T2, HGFA (Val373-Ser655); test: SPR (BIAcore 3000), steady state affinity, IgG captured, HGFA injected
Description: (§4) Antibody reformatting and determination of dissociation rate constants to HGFA: Anti-HGFA Fabs were reformatted into human IgG1 by cloning the VL and VH regions of individual clones into LPG3 and LPG4 vector, respectively (Liang et al, 2007). The full-length antibodies were transiently expressed in Chinese Hamster Ovary cells and purified on a protein-A column. To determine binding affinities of the reformatted anti-HGFA antibodies, surface plasmon resonance measurements on a BIAcore™-3000 instrument (GE Health Care, NJ) were performed. Rabbit anti-human IgG were chemically immobilized (amine coupling) on CM5 biosensor chips and the anti-HGFA antibodies were captured to give approximately 250 response units (RU). For kinetics measurements, two-fold serial dilutions of HGFA or active site-blocked HGFA (0.9 nM to 250 nM) were injected in PBT buffer at 25° C. with a flow rate of 30 μl/min. […] Association rates (kₒₙ) and dissociation rates (koff) were obtained by using a simple one-to-one Langmuir binding model (BIAEvaluation) and the equilibrium dissociation constants (KD) were calculated (koff/kₒₙ). […]

HGFA-KQLR complex [4] = molecular target: T4, HGFA-KQLR complex (human, UniProt Q04756 373-655, N-terminal acetyl; C-terminal chloromethyl ketone, reacted with Ser195 and His57 of HGFA; active-site Ser195 and His57 (chymotrypsinogen numbering) covalently linked to Ac-KQLR-cmk); test: SPR (BIAcore 3000), steady state affinity, IgG captured, HGFA-KQLR complex injected
Description: as §4

HGFA (Val373-Ser655) [5] = molecular target: T2, HGFA (Val373-Ser655); test: SPR
Description: as §4

HGFA-KQLR complex [6] = molecular target: T4, HGFA-KQLR complex; test: SPR
Description: as §4

HGFA-KQLR complex [7] = molecular target: T4, HGFA-KQLR complex; test: SPR (BIAcore 3000), IgG captured on anti-human IgG, HGFA-KQLR complex injected, 25 C
Description: as §3

HGFA (Val373-Ser655) [8] = molecular target: T2, HGFA (Val373-Ser655); test: competition ELISA: coated HGFA incubated with increasing Ab40, then 1 nM biotinylated KD1, detected with streptavidin-HRP; blocked ligand KD1; inhibition partial
Description: FIG. 3: Effects of active site inhibitors on antibody binding to HGFA. (a-b, e-f) Surface plasmon resonance (BIAcore) measurements of binding to immobilized antibodies, Ab40 (a-b) or Ab40.ΔTrp (e-f), after co-injection of HGFA (a,e) or HGFA-KQLR (b, f) complex (“KQLR” disclosed as SEQ ID NO: 10). (c) Competition binding (BIAcore) of HGFA to immobilized Ab40 in presence of different concentrations of KD1. (d) Competition binding ELISA measuring binding of HGFA to biotinylated KD1 in the presence of increasing antibody concentrations.
HGFA purification, enzymatic kinetic assays and competition ELISA: HGFA (Val373-Ser655) was produced by use of a baculovirus—insect cell expression system and purified on a Ni-NTA-agarose column, followed by size exclusion chromatography as described (Kirchhofer et al, 2003). […] After addition of S-2266 (0.24 mM˜Kₘ) the linear rates of the increase in absorbance at 405 nm were measured on a kinetic microplate reader (Spectramax-M5, Molecular devices, Sunnyvale, Calif.). […] Various concentrations of Chromogenix S-2266 were added and the linear rates of absorbance increase at 405 nm were measured. […] Biotinylated KD1 that was bound to HGFA was detected by streptavidin-HRP conjugates.

binding result (matriptase) | Kd (HGFA (Val373-Ser655) [1]) | koff (HGFA (Val373-Ser655) [1]) | kon (HGFA (Val373-Ser655) [1]) | binding result (factor XIIa) | binding result [2] | Kd (HGFA (Val373-Ser655) [3]) | Kd (HGFA-KQLR complex [4]) | fold improvement in binding affinity over Ab39 (HGFA (Val373-Ser655) [5]) | fold decrease in affinity compared to HGFA (HGFA-KQLR complex [6]) | Kd (HGFA-KQLR complex [7]) | koff (HGFA-KQLR complex [7]) | kon (HGFA-KQLR complex [7]) | IC50 (read off the curve) (HGFA (Val373-Ser655) [8]) | Binder
no binding | 10.3 nM | 0.0053 s⁻¹ | 520000 M⁻¹ s⁻¹ | no binding | no binding | – | – | – | – | – | – | – | – | Ab39 (antibody, V domains shown, also called parental Ab39; anti-HGFA antibody Ab39) VH: EVQLVESGGGLVQPGGSLRLSCAASGFTFNGTYIHWVRQAPGKGLEWVGGIYPAGGATYYADSVKGRFTISRDNSKNTLYLQMNSLRAEDTAVYYCAKWWAWPAFDYWGQGTLVTVSS VL: DIQMTQSPSSLSASVGDRVTITCRASQDVSTAVAWYQQKPGKAPKLLIYSASFLYSGVPSRFSGSGSGTDFTLTISSLQPEDFATYYCQQSYTTPPTFGQGTKVEIKR
– | – | – | – | – | – | 150 nM | 161 nM | – | – | – | – | – | – | Ab40.ΔTrp (antibody, V domains shown, also called Trp96H-deletion mutant of Ab40) VH: EVQLVESGGGLVQPGGSLRLSCAASGFTFNGTYIHWVRQAPGKGLEWVGGIYPAGGATYYADSVKGRFTISRDNSKNTLYLQMNSLRAEDTAVYYCAKWAWPAFDYWGQGTLVTVSS VL: DIQMTQSPSSLSASVGDRVTITCRASQDVSTAVAWYQQKPGKAPKLLIYSASFLYSGVPSRFSGSGSGTDFTLTISSLQPEDFATYYCQQSNRAPATFGQGTKVEIKR
no binding | 0.16 nM | 0.000175 s⁻¹ | 1.08e+06 M⁻¹ s⁻¹ | no binding | no binding | – | – | 64 fold | 8 fold | 1.35 nM | 0.00043 s⁻¹ | 320000 M⁻¹ s⁻¹ | ~1 nM | Ab40 (antibody, V domains shown, also called anti-HGFA antibody Ab40) VH: EVQLVESGGGLVQPGGSLRLSCAASGFTFNGTYIHWVRQAPGKGLEWVGGIYPAGGATYYADSVKGRFTISRDNSKNTLYLQMNSLRAEDTAVYYCAKWWAWPAFDYWGQGTLVTVSS VL: DIQMTQSPSSLSASVGDRVTITCRASQDVSTAVAWYQQKPGKAPKLLIYSASFLYSGVPSRFSGSGSGTDFTLTISSLQPEDFATYYCQQSNRAPATFGQGTKVEIKR
